assay: soluble on expression in E. coli; label from the status in PepcDB or PDB records

Sequence | soluble on expression in E. coli
MLYQPSLLKSRLTPAPPGFSFQPQPLLNSDMDPVRNLESLGNYTVYQDSSQCFWQHQNFTSNREHNPALRKTKICDHWRRSGSCSYGDACWYAHGEDDLRKVVRIDRSNEEENERPATAEIQKSPTKRASTNVKGLTVNIPSNTAFKEQNSSMPLSPAQERWISMSIGAVPPPTSSAAEKDAISSLSKNGVEQEQEKKHEICSRDDDIDDYGFLSPNPFPYPQQSMFSAGFPSHGHHQRSSNRATQGVPSQQFGGPVNIPGQDPNRLGSGAYHIPPQHQRSRSNVRTSREVGGPPPQFQQAIWNVAGEIYQRQKDIEIGGQRVGPNDRQPTQQKNSEMDRLLSKLKMKDLNYLRFMIERGYINERDVSRQTSSDQMSNGHHFNAPMTPPYHPRLAGNEPNTSDCHYHGTGNRLSNFMPGRHRPPHQHPIHHHHQSQHQLHQHQQYLHHAAQQYRYSHQQGPQHPFAALLSPPEISESLLPPDDSFSIWLEPKPKKQSGAMTRTRGAATINESSSAASLLTKMDALRSDKYPITDEEMMMANDFVRQGDRDDKLSSSESSSPVVMSLMELLSNENLLDQVATEKPKCSMFDFDTLKIAETLKEPLQSSECSTTTSSKMTCSPMFFFVDEKTPNYDGSGSKSLFTPSSSAGQTPSFLEPCDFFAATGSCPFGDACHQSHSI | not soluble
HISSQQHEKAIKSYFDEAQTQGVIIIKEGKNLSTYGNALARANKEYVPASTFKMLNALIGLENHKATTNEIFKWDGKKRTYPMWEKDMTLGEAMALSAVPVYQELARRTGLELMQKEVKRVNFGNTNIGTQVDNFWLVGPLKITPVQEVNFADDLAHNRLPFKLETQEEVKKMLLIKEVNGSKIYAKSGWGMGVTPQVGWLTGWVEQANGKKIPFSLNLEMKEGMSGSIRNEITYKSLENLGII | soluble
MGSDKIHHHHHHMNLKQLEYFMHVAELGSFSKAAMVLDVAQPALSRQVRGLETELRQQLFLRNGRGVALTEAGRRLFDHSVAIMQMVAHAREDLGASRDAPVGRVTIGLPPSIARQLTLPLIDHFKRTLPSARLAIVEGLSSHIIEWVTTGRADVGLVYNPDAQPGIEITPLLQEPLGLVSYAPPSKRRGAAAPLPFKELSKYPLIVPERVHAMRRLLENEAALAGVKLDIAWEVSSVPSIIELVCAGYGHAVLTRSGVAASPRAAELVMRPLIEPAPASALCLVVSATRRPTPLAQHSMRMLTDLVRTLPT | not soluble
MANLDDELALFESELAELEQASSNSEEPASSQTHVGYDNATISAGPTTSESSAATSSAQVIQPSLLAAPPFIPIAATIAVSPFINPALGRLPTMPPVPPSIFMPPQLRAAPIMFPPRVLGIPAPATIEGAPALYETPAVNAIPQELLRTQALQSDIDKMNFKKQTDPFKKKIKEQQAKKKFVRSGGGQVWEDPSLAEWDENDFRVFCGDLGNEVSDELLAKAFRKYPSFQKAKVVRESRTNKSKGYGFVSFRDSEDYVRAMREMDGKYVGNRPIKLRKSAWKERNIDVIKQKRKQKKELGIL | soluble
MGSDKIHHHHHHMSIAIIIATHGVAAEQLLKTTEMLIGEQENVATIDFVSGENAETIMTKYQEKLSTTLAHCDEVLFLVDTWGGSPFNAANRVIGDNTNMDIVTGVNVPMLVETFMARDDNPSLQELVSIALETGRAGVRALKYEEKSAETTALSQPVPEQPQIAVKQQEGNLIVGLARIDDRLIHGQVATRWTKESRVTRIVVVNDDVAKDQVRSTMLKSVAPPGVTAHVVNIEKMIRVYNNPEYANERMMLLFTNPTDVLRLLEAGVDMKSINVGGMAYKDGKKMITSAVAVDDKDIAAFKAIDAMGIELDVRKVSNDSRQYMMDLLKKNNLI | not soluble
MNYGFNFLHNTIIMMIIRSIIFRNFLFSISQLSQLNNVNTCSIIFHSLFTHFQITSHFTQMAAASSAPHQMQVRVTFYTSHNPQSVLMILKNDQALQQISEKARELFPSADYRLYYGDVNGPIFEFTNSDQIMSKIRITTFSRTPQLFVRLETVPLRPTALPSVSTETAKKASDADRESKSRSSLKRIENNQELTLKTLEKLQKELSRVSALETMVADLHAKEREPVVEEVQKPFPPVKHSASCDACLGDIIGHRFKCLECADYDLCEKCERKSLHYEHAMIRIVEPKKTMIPSYVTSNSPNNVFPTYMQHKIQQPQTIKGINKTVITRLVPSHQVNPAPMPQAPPVSTPVPFPPSPTIGNGAVPKPAQEPRIPPSPTSALPPPQFFNEETRAAIINSAALLKETFSTLSRSFLDLADGAQANMDKKIIERSTMEAGMTKFEEKMDNLKRHCEEKYLGTETAEAEKSEESSKKQADSLSGPKIKKAKKKSCYKKSAERLFTMQLAAAAAEQARLEQEAKKRAEASSAELQRKLAELNVKESQSKSEENIADFVLYDLYGNSLEALLRGRSSSRIADPPTTPNTEPATTELASTTSATPAVTAPASIVPVTPTAPIVETLIVPPLPPVESNPEEVTPMVTAPISIHSSFENISSDFESLSPSWGGYPDLEAAQRLEVIDDNLLDFSDVAVEAQEAQEAQEEARPEPEQSLPPFNEETEKTFDRLLEMGFSYNVTVAAIRANGSNLEMCLQALLH | not soluble
SAQNVYGPGVRIGNWNEDVYLEEELMKDFLEKRDKGKLLIQRSRRLKQNLLRPMQLSVTEDGYIHYGDKVMLVNPDDPDTEADVFLRGDLSLCMTPDEIQSHLKDELEVPCGLSAVQAKTPIGRNTFIILSVHRDATGQVLRYGQDFCLGITGGFDNKMLYLSSDHRTLLKSSKRSWLQEVYLTDEVSHVNCWQAAFPDPQLRLEYEGFPVPANAKILINHCHTNRGLAAHRHLFLSTYFGKEAEVVAHTYLDSHRVEKPRNHWMLVTGNPRDASSSMLDLPKPPTEDTRAMEQAMGLDTQ | soluble
MGSDKIHHHHHHMSEIQLPSQFESFAEARKQGFIAVKNLKEQGKKVAGVFCTYAPVELVLAAGAVPVGLCAFSDETIPEAEKVLPRNLCPLVKSSYGFAITDKCPYMFFSDLMIGETTCDGKKKMYELLGEFKNLHVMQLPQTAAAEASQELWYQEVLRLKDRIEQDFGVTITEEGIKNAIKVKNEERKLLKEFYELSKSCPPPITGAEQLKVLYGSQFKFDPEAKNREIRETIDKVKADQAKGVENVSPAAKRILITGCPLAGVTEKVVRAIEESGGVVVAYENCIGVKPVERLVDETIDPYKALADRYLQIGCSVMTPNPNRLDLLSRLVREFKVDGVVEMTLQACHTYNLETTQIRKHMQKEDMPFISVETDYSTSDAAQLKTRLAAFIEMLS | not soluble
PRVSLFFFSADTDDHAWDKHALVLECAELADSLGLDAIWVPERHFDPFGAPYPSPGLLLAAIAARTSRIALRSGSVVLPLRDPLLVAEEWGVLDSLSRGRMGISLASGWHADDFVLNPEGYERRKDVLEERLADLHTLWNGASITRKGPGGRPVEVRTYPRPERTPEVWLTSSRNPDTWRTAGRLNLHVLTALLEQTIDEITERVGLYHQALTEAGHPTDGRQVTCMLHTHLASDPASVEQRVRGPLIRYLSAHMDLFSKYAAGGGAGIDPDEVTEADRQALLEHGLRRYMGTSGLFGSAESCLPKVERLGAAGITELGCLVDFGLPREQVLESVEELGRLRVALRETAGAPK | soluble
MEVSHVTLEPNKDSRPAVLTIGKFDGVHLGHQTILNTALSIKKENEILTAISFSPHPLWALKQIEIYREMLTPRMEKERWLAHYGVDHLIETAFTPRYAETTPEEFVTDHLSNLQLSHIIVGSEFNFGKGRDSDVDLLRDLCKPYGIGVTSVPVIETNQTKISSTNIRAFIRRGHFLEAEQLLGHP | not soluble
MRPISNLNTSAATYIPPQQLPSSCLETLTLLVQMNNYIKRDADYSTGMAVAPLVPEEVHLLAAAMTTELHRHQFQPVVSANDLQLPEPFTFDVAGFTITFTKTQEHDNTGNLMKIAVSKSGVCTSTNITLELFHSIVTTLMSRSQYGTFDLWSVRPILTDESQNRVHEAARYSPAQQYGREETHFTNNGMREFGNMSPLAWRNDVELQQSCNTSNIPPNAANDDINNTRQTIEDQPEADEPQQYVKLTVDDMRKWAAMDQQARNALQGVSGWCTRNHFNIKNARNYLTDHGLNYAGQVKVNRPHEYAKFTLEHIRQWAALNKHVRKPVGYLEKWCKERNLAPTTARNYLKNDGLTALGELKLTGPQKWVTFTFGDIVQWANMTQEERNSAGGAEKWSKKRGFQWSTARSYLKSSGVTKQGARKLAWLKNSGNMSNPFYLAQPTSRRT | not soluble
MGSDKIHHHHHHMPVRRIALITNGYPDIYARERSFILPELKALLAYGHQVTLVPVREVTEVDPDLPDGVAVERRLAHLYRPWQLPATVLWMMFRGYFWREAWQCLGRGRLRYLGHFFKESVRATNTLRMQSALRDYDVLYTYWFKGESTGISLMPGTHARRLTRAHGYDLYEDRPNNEGYIPYREMTLPRLDRVVVLSEEARAYLEQRYPASVGRTVVSPLGVAHESDENPGPEADRIVLVSCSYPTPNKRLPLIGQLAAAVACARPSVKVVWMHFGCRREEAGLPVDFAGPPNLSVQFAGEAPNEHIRRWYATRPVSFFVNLSQSEGQPVSIMEAMAFGIPVMATGVGGIPEMLRHGGGMTLPEQPDVNAVAREMLSLLDDPSRYQAMREAARETQLAYFNTSANHRTLADLIGEF | not soluble
MQFPVLQESSQSALPQLTGILSSLIVTEEVKAAETDAIMAANTGKSEIVQVTYKLFGLIPFKSSAIQVMPQLKLLPGGQSIGVSLQAKGVMVVGQAAVQNQEGKLVYPAKEAGIEVGDIILKIDGREMNSDQDVANAIHRAGEKQGFSEILLNHNGQTMQKRVSTVYCPETNRHRVGLYVRNEAAGVGTLTFYDPTNHKYGALGHVINDVDTNQKIEILNGNVVASTIYAIEKGKRGHPGEKIGSFVNQSKFSGNIEKNTVSGIFGSLEGEIKNPYFQEPITVGWESEIKEGPAKIYTVLEGERIEEYDVQIERIMHNRTDSKNMVIKVTDPELVEKTGGIIQGMSGSPIVQDGKIIGAVTHVFVNDASRGYGVFIQNMLKDADIIDKKEVALEHHHHHH | not soluble
FVAHSSGQEVKLDKAPIDRADKESLQRGAKGFVEYCLTCHGANFMRFNRHHDIGMSEDDIRADLIHTGQKTGDLMEAAMRKKEAEGWFGVVPPDLSVIARARGADWLYTYLRTFYQDTSTYSGWNNLIFDKVAMPHVLHHLQGWQVLEPGTGNLVQTKPGTMTKEEYDRFVADLVNYMVYLGEP | not soluble
MKLTIIRLEKFSDQDRIDLQKIWPEYSPSSLQVDDNHRIYAARFNERLLAAVRVTLSGTEGALDSLRVREVTRRRGVGQYLLEEVLRNNPGVSCWWMADAGVEDRGVMTAFMQALGFTTQQGGWEKCG | soluble
MGRLFVVNLEGKIYSCKHCKTHLATYEDIISKSFHCKHGKAYLFNKVANVSIGETEERLMMTGKHTVADIFCVSCGSIVGWKYETAHEKNQKYKEGKSVLERFKISGPDGSNYWVSSHGRHIGGSDADDA | soluble
MGSDKIHHHHHHMFDPETLRTFIAVAETGSFSKAAERLCKTTATISYRIKLLEENTGVALFFRTTRSVTLTAAGEHLLSQARDWLSWLESMPSELQQVNDGVERQVNIVINNLLYNPQAVAQLLAWLNERYPFTQFHISRQIYMGVWDSLLYEGFSLAIGVTGTEALANTFSLDPLGSVQWRFVMAADHPLANVEEPLTEAQLRRFPAVNIEDSARTLTKRVAWRLPGQKEIIVPDMETKIAAHLAGVGIGFLPKSLCQSMIDNQQLVSRVIPTMRPPSPLSLAWRKFGSGKAVEDIVTLFTQRRPEISGFLEIFGNPRS | not soluble

Source: the DeepSol protein solubility set
